# Experimental data: patent publication US20220356259A1 (SHIHUDA PHARMACEUTICAL GROUP JILIN, published 2022)
# Changes are numbered by the printed parent chain.
# T1: fusion protein in which the extracellular domain of human GITR is fused with the domain of mouse IgG1-Fc (human)
# T1 construct: The GITR part is said to start at residue 1 of Q9Y5U5, so the entry may hold a signal peptide; Made in HEK293 cells, Protein A purified; also called hGITR-muFc; human GITR protein
# T1 chain: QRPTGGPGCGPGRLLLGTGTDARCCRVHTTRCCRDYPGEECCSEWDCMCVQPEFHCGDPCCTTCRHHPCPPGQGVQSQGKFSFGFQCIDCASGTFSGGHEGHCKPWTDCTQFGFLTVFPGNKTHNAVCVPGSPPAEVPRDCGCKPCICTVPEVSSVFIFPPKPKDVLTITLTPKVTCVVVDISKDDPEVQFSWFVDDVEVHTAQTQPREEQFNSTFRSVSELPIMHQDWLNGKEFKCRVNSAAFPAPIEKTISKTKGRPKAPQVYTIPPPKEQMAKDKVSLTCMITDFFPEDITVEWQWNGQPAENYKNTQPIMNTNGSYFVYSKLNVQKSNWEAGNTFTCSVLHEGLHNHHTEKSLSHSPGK
# B1: isolated antigen-binding protein 3E2 2-3 (antibody, human IgG1, kappa)
# heavy: not shown
# light: DIVMTQSPLSLPVTLGQPASISCRSSQTIVHSNGNTYLEWYLQKPGQSPKLLIYKVSNRFSGVPDRFSGSGSGTDFTLKISRVEAEDVGVYYCFQGSHVPWTFGGGTKLEIKRTVAAPSVFIFPPSDEQLKSGTASVVCLLNNFYPREAKVQWKVDNALQSGNSQESVTEQDSKDSTYSLSSTLTLSKADYEKHKVYACEVTHQGLSSPVTKSFNRGEC
# notes: also called VHV2/VLV3
# B2: isolated antigen-binding protein 3E2 3-3 (antibody, human IgG1, kappa)
# heavy: not shown
# light: B1 light
# notes: also called VHV3/VLV3
# B3: isolated antigen-binding protein 3E2 1-3 (antibody, human IgG1, kappa)
# heavy: not shown
# light: B1 light
# notes: also called VHV1/VLV3
# B4: isolated antigen-binding protein 3E2 3-2 (antibody, human IgG1, kappa)
# heavy: not shown
# light: B1 light with K44R, L109V
# notes: also called VHV3/VLV2
# B5: isolated antigen-binding protein 3E2 1-4 (antibody, human IgG1, kappa)
# heavy: not shown
# light: B1 light with Q17D, P18Q
# notes: also called VHV1/VLV4
# B6: isolated antigen-binding protein 3E2 1-2 (antibody, human IgG1, kappa, V domains shown)
# VH: QVTLQESGPTLVKPTQTLTLTCTFSGFSLSTFGMGVGWIRQPPGKGLEWLVLILWNDIKYYNPALKSLLTVTKDTSKNQVVLTITNMDPVDTATYYCARVDGYYGYFDVWGQGTMVTVSS
# VL: DIVMTQSPLSLPVTLGQPASISCRSSQTIVHSNGNTYLEWYLQRPGQSPKLLIYKVSNRFSGVPDRFSGSGSGTDFTLKISRVEAEDVGVYYCFQGSHVPWTFGGGTKVEIKR
# notes: also called VHV1/VLV2
# B7: isolated antigen-binding protein 3E2 3-4 (antibody, human IgG1, kappa)
# heavy: not shown
# light: B1 light with Q17D, P18Q
# notes: also called VHV3/VLV4
# B8: isolated antigen-binding protein 3E2 2-2 (antibody, human IgG1, kappa)
# heavy: not shown
# light: B1 light with K44R, L109V
# notes: also called VHV2/VLV2
# B9: isolated antigen-binding protein 3E2 2-4 (antibody, human IgG1, kappa)
# heavy: not shown
# light: B1 light with Q17D, P18Q
# notes: also called VHV2/VLV4
# B10: isolated antigen-binding protein C3E2 (antibody, human IgG1, kappa, V domains shown)
# VH: QVQLQESGPGILQPSQTLSLTCSFSGFSLSTFGMGVGWIRQPSGKGLEWLVLILWNDIKYYNPALKSLLTVSKDTSNNQVFLKIASVDTADTATYYCARVDGYYGYFDVWGTGTTVTVSS
# VL: B6 VL with T14S, Q17D, P18Q, R44K, V88L, V109L
# notes: made in HEK293 cells; also called parent antibody; chimeric antibody
# Target: T1, fusion protein in which the …
# Assay: BLI (Octet K2), antibody on AHC biosensor, hGITR-muFc in solution from 100 nM
# Protocol: Using the BLI method, the above 9 isolated antigen-binding proteins of the present application and C3E2 were immobilized on the AHC biosensor at a concentration of 10 µg/ml. At the same time, the hGITR-muFc prepared in Example 1 was diluted 2-fold from 100 nM in 5 gradients. The reaction plate was placed on Octet K2 instrument, meanwhile the program was set as Baseline 60 s, Association 20 s, Disscociation 300 s, Baseline 2 30 s, Loading 40 s, custom 5 s. At the end of the program, curve fitting and parameter conversion were conducted.
Binder,Kd,koff,kon
B1,< 1 pM,< 1e-07 s⁻¹,2.46e+06 M⁻¹ s⁻¹
B2,< 1 pM,< 1e-07 s⁻¹,2.49e+06 M⁻¹ s⁻¹
B3,< 1 pM,< 1e-07 s⁻¹,2.32e+06 M⁻¹ s⁻¹
B4,< 1 pM,< 1e-07 s⁻¹,2.52e+06 M⁻¹ s⁻¹
B5,< 1 pM,< 1e-07 s⁻¹,2.55e+06 M⁻¹ s⁻¹
B6,< 1 pM,< 1e-07 s⁻¹,2.49e+06 M⁻¹ s⁻¹
B7,4.72 pM,1.23e-05 s⁻¹,2.6e+06 M⁻¹ s⁻¹
B8,12.5 pM,3.01e-05 s⁻¹,2.4e+06 M⁻¹ s⁻¹
B9,< 1 pM,< 1e-07 s⁻¹,2.41e+06 M⁻¹ s⁻¹
B10,6.01 pM,1.83e-05 s⁻¹,3.05e+06 M⁻¹ s⁻¹

# Target: T1, fusion protein in which the …
# Assay: ELISA, hGITR-muFc coated at 5 ug/ml, anti-human IgG-HRP (FIG. 6)
# Protocol: (§1) An ELISA plate was coated with 5 μg/ml of hGITR-muFc at 100 μl/well, and incubated overnight at 4° C. The plate was washed with 10 mM of PBS/Tween (0.05%) at pH 7.4 for 3 times, blocked with PBS containing 3% BSA and incubated at 37° C. for 2 h; then washed for 3 times, added with the above 9 isolated antigen-binding proteins of the present application in 3-fold dilutions starting from 10 μg/ml, incubated at 37° C. for 2 h, washed for 3 times, added with anti-human IgG-HRP enzyme-labeled secondary antibody, incubated at 37° C. for 1 h, cleaned, then developed with TMB substrate, and subjected to spectrophotometric analysis at OD450 nm. The results are shown in FIG. 5 and FIG. 6, in which the EC₅₀ values of various proteins in FIG. 5 and FIG. 6 are shown in Table 3 and Table 4, respectively. It can be seen from FIG. 5 and FIG. 6 as well as Table 3 and Table 4 that, the humanized antibodies (i.e., the isolated antigen-binding proteins of the present application 3E2 1-2, 3E2 1-3, 3E2 1-4, 3E2 2-2, 3E2 2-3, 3E2 2-4, 3E2 3-2, 3E2 3-3 and 3E2 3-4) have a binding affinity to the antigen that is equivalent to that of the parent antibody (i.e., the isolated antigen-binding protein C3E2 of the present application).
row,Binder,EC50
1,B1,4.71 ng/mL
2,B2,6.04 ng/mL
3,B4,5.28 ng/mL
4,B7,6.43 ng/mL
5,B9,4.8 ng/mL
6,B10,6.72 ng/mL

# Target: T1, fusion protein in which the …
# Assay: ELISA, hGITR-muFc coated at 5 ug/ml, anti-human IgG-HRP (FIG. 5)
# Protocol: as §1
row,Binder,EC50
1,B3,5.83 ng/mL
2,B5,4.52 ng/mL
3,B6,5.9 ng/mL
4,B8,5.64 ng/mL
5,B10,6.21 ng/mL
